Measurements taken from article PMC4148199, “Multiple Regulation of Rad51-Mediated Homologous Recombination by Fission Yeast Fbh1” (PLoS Genetics, 2014).
Values belong to the binder of their own block, whether it stands above or below them.

What was measured:
Fbh1;Skp1 = target: T1, Fbh1;Skp1 (Schizosaccharomyces …, UniProt Q9USU3;Q9Y709 1-878;1-161, |); experiment: EMSA; 3 mM Mg-acetate; preferred substrate; EMSA: 25 mM Tris-acetate pH 8.0, 1 mM DTT, 3 mM Mg-acetate, 5% glycerol, 100 mM KCl, 10 nM DNA, 30 C 10 min; ssDNA beads: 30 mM Tris-HCl pH 7.5, 1 mM DTT, 100 mM NaCl, 3.5 mM MgCl2, 5% glycerol, 0.25% Tween 20, ATP regeneration system, 37 C; conditions: protein: recombinant;recombinant; tags: 6His;6His; copies: 1;1; label: 32P
T1 sequence 1: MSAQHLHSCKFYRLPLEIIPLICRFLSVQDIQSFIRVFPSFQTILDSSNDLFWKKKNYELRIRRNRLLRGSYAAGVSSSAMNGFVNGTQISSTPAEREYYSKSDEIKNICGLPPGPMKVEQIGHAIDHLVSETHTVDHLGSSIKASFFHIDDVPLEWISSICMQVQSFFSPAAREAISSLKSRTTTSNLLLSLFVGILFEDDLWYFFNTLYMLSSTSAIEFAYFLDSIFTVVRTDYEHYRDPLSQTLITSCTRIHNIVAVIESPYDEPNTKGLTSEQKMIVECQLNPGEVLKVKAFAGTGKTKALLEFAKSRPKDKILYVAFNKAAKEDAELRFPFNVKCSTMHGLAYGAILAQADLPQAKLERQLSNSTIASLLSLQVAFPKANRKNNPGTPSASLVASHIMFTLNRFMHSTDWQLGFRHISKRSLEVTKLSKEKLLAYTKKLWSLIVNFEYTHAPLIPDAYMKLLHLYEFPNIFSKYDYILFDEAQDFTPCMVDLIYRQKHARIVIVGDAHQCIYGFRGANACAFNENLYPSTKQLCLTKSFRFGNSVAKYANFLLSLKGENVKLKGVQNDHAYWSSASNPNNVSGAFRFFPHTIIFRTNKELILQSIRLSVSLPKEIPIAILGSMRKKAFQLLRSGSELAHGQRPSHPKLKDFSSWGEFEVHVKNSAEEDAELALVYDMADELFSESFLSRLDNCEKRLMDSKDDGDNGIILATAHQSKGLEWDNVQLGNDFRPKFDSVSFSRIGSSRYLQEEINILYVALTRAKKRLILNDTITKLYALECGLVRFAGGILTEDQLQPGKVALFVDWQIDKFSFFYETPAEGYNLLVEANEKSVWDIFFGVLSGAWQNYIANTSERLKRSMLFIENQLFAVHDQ
T1 sequence 2: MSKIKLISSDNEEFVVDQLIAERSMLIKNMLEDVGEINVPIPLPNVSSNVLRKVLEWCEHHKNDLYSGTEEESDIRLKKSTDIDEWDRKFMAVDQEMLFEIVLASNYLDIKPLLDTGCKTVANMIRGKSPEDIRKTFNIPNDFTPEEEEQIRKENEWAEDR

[1] = target: T2, complex of 3FLAG6His-Fbh1 and 6His-Skp1 (S. pombe, UniProt Q9USU3 1-878; Q9Y709 1-161); experiment: co-IP; in vitro; 0.5 µg of each purified protein mixed in 10 µl 25 mM Tris-OAc pH 7.5, 100 mM KCl, 0.5% NP40, 3 mM Mg-acetate, 10 min room temperature then 20 min 4°C; M2 anti-FLAG antibody and Dynabeads Protein G; western blot with anti-Rad51, anti-Sfr1 or anti-M2; conditions: both partners purified
T2 construct: Fbh1 (F-box DNA helicase-1), Schizosaccharomyces pombe; Skp1, Schizosaccharomyces pombe; also called FLAG-His-tagged Fbh1-Skp1; Fbh1-Skp1 complex; source: insect cells, baculovirus co-infection, purified as a complex
T2 sequence (looked up) 1: T1 sequence 1
T2 sequence (looked up) 2: T1 sequence 2

B1: F3-d47 (47-mer ssDNA) (ssDNA)
DNA: AGCTATGACCATGATTACGAATTGCTTGGAATCCTGACGAACTGTAG
binding result (Fbh1;Skp1): binds

binding result [1]: binds
B2: Rad51 (natural protein, S. pombe, UniProt P36601 1-365, looked up)
chain: MADTEVEMQVSAADTNNNENGQAQSNYEYDVNVQDEEDEAAAGPMPLQMLEGNGITASDIKKIHEAGYYTVESIAYTPKRQLLLIKGISEAKADKLLGEASKLVPMGFTTATEYHIRRSELITITTGSKQLDTLLQGGVETGSITELFGEFRTGKSQICHTLAVTCQLPIDMGGGEGKCLYIDTEGTFRPVRLLAVADRYGLNGEEVLDNVAYARAYNADHQLELLQQAANMMSESRFSLLVVDSCTALYRTDFSGRGELSARQMHLARFMRTLQRLADEFGIAVVITNQVVAQVDGISFNPDPKKPIGGNILAHSSTTRLSLRKGRGEQRICKIYDSPCLPESEAIFAINSDGVGDPKEIIAPV
notes: Rad51 recombinase, Schizosaccharomyces pombe; also called SpRad51
